Measurements taken from PMC6404581, “Staphylococcus aureus toxin LukSF dissociates from its membrane receptor target to enable renewed ligand sequestration” (The FASEB Journal, 2018).

B1: G130D leukocidin component F (natural protein, Staphylococcus aureus)
chain: MGSQHITPVSEKKVDDKITLYKTTATSDSDKLKISQILTFNFIKDKSYDKDTLILKAAGNIYSGYTKPNPKDTISSQFYWGSKYNISINSDSNDSVNVVDYAPKNQNEEFQVQQTVGYSYGGDINISNGLSGDGNGSKSFSETINYKQESYRTSLDKRTNFKKIGWDVEAHKIMNNGWGPYGRDSYHSTYGNEMFLGSRQSNLNAGQNFLEYHKMPVLSRGNFNPEFIGVLSRKQNAAKKSKITVTYQREMDRYTNFWNQLHWIGNNYKDENRATHTSIYEVDWENHTVKLIDTQSKEKNPMSAAA
notes: cloning residues before LukF; LukF-PV, S. aureus; they already carry the D (LSGDGNG); residues from the NotI site between LukF and the C-terminal His6; also called F(G130D); LukF mutant G130D LukF; source: E. coli Rosetta-gami 2 (DE3) pLysS, purified (nickel HisTrap, Superdex 75)

Assays:
[1] = molecular target: sortase-tagged FITC-labeled human C5a receptor, on HEK cells (human) (UniProt P21730); experiment: FRET or BRET; sensitized emission FRET, live sortase-tagged FITC-hC5aR cells (donor) with Cy3 mS* (acceptor), 1 h at +4°C, washed, before addition of mF
sortase-tagged FITC-labeled human C5a receptor, on HEK cells (human), sequence (P21730 whole entry): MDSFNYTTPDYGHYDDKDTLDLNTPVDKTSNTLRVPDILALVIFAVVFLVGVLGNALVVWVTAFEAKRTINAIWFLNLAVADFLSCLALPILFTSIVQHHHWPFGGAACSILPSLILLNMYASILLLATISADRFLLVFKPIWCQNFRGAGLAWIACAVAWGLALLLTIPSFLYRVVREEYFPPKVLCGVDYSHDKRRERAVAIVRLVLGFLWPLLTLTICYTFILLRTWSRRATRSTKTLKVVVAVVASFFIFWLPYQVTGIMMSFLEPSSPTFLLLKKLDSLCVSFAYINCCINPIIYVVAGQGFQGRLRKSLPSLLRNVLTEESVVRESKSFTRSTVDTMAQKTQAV

[2] = molecular target: sortase-tagged FITC-labeled human C5a receptor, on HEK cells (human) (UniProt P21730); experiment: FRET or BRET; sensitized emission FRET, fixed FITC-hC5aR cells with one Cy3-labeled toxin component alone (Cy3 mS* or only Cy3 mF*), 30 min at 4°C then 10 min at 37°C, washed, fixed, PBS
[3] = molecular target: human C5a receptor, endogenous on human polymorphonuclear cells (human (endogenous in PMNs)) (UniProt P21730)
human C5a receptor, endogenous on human polymorphonuclear cells (human (endogenous in PMNs)), sequence (P21730 whole entry): as above

[4] = molecular target: T1, wild-type Staphylococcus aureus leukocidin S (Staphylococcus aureus, UniProt O80066 29-312); experiment: flow cytometry on cells; details: both partners purified
T1 construct: also called S(wt); LukS; source: E. coli Rosetta-gami 2 (DE3) pLysS, purified (nickel HisTrap, Superdex 75)
T1 sequence: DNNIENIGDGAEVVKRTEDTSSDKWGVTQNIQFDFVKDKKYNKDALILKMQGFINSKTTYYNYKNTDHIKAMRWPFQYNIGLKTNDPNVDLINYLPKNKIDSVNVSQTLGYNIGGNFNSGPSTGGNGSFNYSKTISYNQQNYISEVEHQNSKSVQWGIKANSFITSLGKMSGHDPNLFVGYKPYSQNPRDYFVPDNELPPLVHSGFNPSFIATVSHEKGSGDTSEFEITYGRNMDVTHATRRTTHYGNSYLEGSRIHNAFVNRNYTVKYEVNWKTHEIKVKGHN

Molecule	FRET efficiency [1]	FRET efficiency [2]	toxin concentration at which PMN permeabilization (DAPI uptake, flow cytometry, 30 min) reaches 100%; modified toxins in place of the wild-type ones [3]	binding result [4]
maleimide-labeled LukS-K281C-Y113H (natural protein)	75%	60%	3 nM	–
B1	–	–	–	binds
